Assay results: a protein production outcome set (Wang et al. 2014)

Test: label from the status in PepcDB records

Row | Sequence | protein production
1 | MIPMFTVTLEDSGTLWKSLHSSSESEMTTLPPLPMTRPKLTALARQKLPCSSRKIPRSQLIKEKDDIDHYLEVNFKGLSKEEVAAYRNSYKKNICVDMLRDGYHKSFTELFALMERWDALREAARVRSLFWLQKPLEEQPDKLDYLYHYLTRAEDAERKESFEDVHNNLYALACYFNNSEDKWVRNHFYERCFKIAQLIKIDCGKKEAEAHMHMGLLYEEDGQLLEAAEHYEAFHQLTQGRIWKDETGRSLNLLACESLLRTYRFLSDKMLENKEYKQAIKILIKASEIAKEGSDKKMEAEASYYLGLAHLAAEEYETALTVLDTYCKISTDLDDDLSLGRGYEAIAKVLQSQGEMTEAIKYLKKFVKIARNNFQSLDLVRASTMLGDIYNEKGYYNKASECFQQAFDTTVELMSMPLMDETKVHYGIAKAHQMMLTVNNYIESADLTSLNYLLSWKESRGNIEPDPVTEEFRGSTVEAVSQNSERLEELSRFPGDQKNET | failed
2 | MIPQIPLPMLSEGKDCKIREVLAGKALKRRLTEMGFTPSSSIRLIGCERGNLLVNVNGARYALGKGMAMKIMVEPD | failed
3 | MIPRCLINQILRLAQASPEREVCGLVGAAAGRRMRCYPVPNVAERPECRFLLDPKGQIDALRAMRERGEELFAIFHSHPTAAAIPSPADLEFAAYPEALHLIVSLGTKGVLEMRGFRIGSSSRPREVELLLAPELEHHHHHH | failed
4 | MIPTATYRLQFRNGMTFDRAAALVPYLKNLGISHLYASPIFTATKASTHGYDVTDANEIEPSIGGREGFERLVAELKAQGLGLIIDIVPNHMASSLENAWWRDVLEYGKESRYARHFDIDWSRRLTLPFLGDTFDAVLENGEIAIKPDPATGKPAFAYYDNYYPLAPATWQGREAEILALTDKAAIADLHERQPWKLMSWRDAARSLSYRRFFEVTGLVGMRVEDKTVFDDTHRLILELVRTGAVDGLRIDHIDGLADPKAYLARLRQEVGPACYITVEKILAKGEQLPDDWPVSGTTGYEFIASLAEVLVDDEQIDNLRQAYETVKGAPVDMRAELRAAKLLMVDRNFEGEFTRLLALALSIASELQIAQEESVVRQALRELLIAFPVYRTYGTAEGLPPTDICLLHRIVERVKTLETPPQPEALTFLSRLLTGDVPASSQEEATQFRVRFQQLTGPLMAKSVEDTLFFRQNMGLALNEVGAEPVTHHFSIERFHHEMKTRQARQPDALSGTSTHDTKRGEDARARLYTLTEAPEQWSECLARWRQMNQTHVKFLNDGTAPKSADTWMLYQALTGVWPPVLQPQDETGLNALKTRFEAFVEKALREAKLRTDWVDSNEAYETAMLDYARYLLAPDNQTFLQDFYRSLQPFIRAGLVNSLTQTVIKLTAPGVPDIYQGSEALNFSLVDPDNRREPDFATLAQQLDQLTPGVFSREESWLNGQVNQYVTAALLRLRQQNHELFRFGDYIPLRAVGQRADKVIAYARVNHDDALIVVAPRLVFAECDGLLSQSHSGFWSGTDIIIPGQLNQHRYRNVLTQERLMPGERLSLASHQGGVLVLMSD | failed
5 | MIPTISDVSTVEEWRSVAKDIVQRDGDVNWRATIVDWPGLGYSARPKMDYDTDVMEKFVVDFMNSPESPMSQSGNDDLVIIGGGHAATLALRATQRGLLKPSAIAAVAPTWAGPLPIVFGRDSSMVSRYGMLRGTLRAPGVGWMMYNMLVSNEKSIESQYKSHVYADQTNVTDAIIQSRYELTKQKGSRYVPAAFLTGLLDPVSSREEFLQLFADLEGKLPVMVMSTKGAPKRSKAEMEALRGAKGVSKFVEVEGALLPQEEYPSLVAQELYNFLQETFAKC | failed
6 | MIQEIIAFLGRRGEFFYISVFMLLMFFIFLISWLIEPRRLINGVLFTIFFISVFAWITVMINKSTSRGLQRAYNLLLLIVFFGIILILVFAWLFLFWNAYFVWKYESHTLPNLLTLFSGFIALIFSVIFILGPGRYLPHWLSALLASIPAIAIYLGLVLYNFLVNLLLYQIYPRHYKQDYLIVLGAGLINGDQVSKLLAARINRAIQFSNRQYQKGRKRPIIIMSGGQGPDEKVPEALAMAKFAQHRGVSPDHILIEDQSKNTYQNMLFSKQLATNDFGGPNFKATFFSNNYHIFRAALLAKEVGLKANGVGAFTRLYYLPNAIIREFAGVFVMHKRRHFVIMGVIVLFFILQAILAAAGIVKFNVI | failed
7 | MIQLRAISRGMICGLLLSQLWSCSSTPLEPTAIEVDALFDDSLFKPVTNIPSVEDIFSLPSSVAVDVKRTYDRYAISTKNPLAVHEWLASYINANQSNGHSDFRYQDNLTQTASETFEQRAGNCMSLVVMTSALADIFNIGTEFQDIAIEPVWDKQGDFYLINGHVNLRLLPAQSVHTVYVSTHAILVDFMPERALRGLAKVQINRQTLTAMFYNNMAAESLVEGDLDHAYALVKAGLKSGHFSPALNTLAVIYRHKGDEKRAEQVYRYALKFDPDDMTTLFNLAVILDNQGRLEEWAQIHKKLELARIRNPYYYYDMGEQAYDEHQYREALAWYQRAVDKADYRHEFFFGLSRTYWALGDEKRAKQNMEKALALSREAADKHRCQAKLQAMRQH | failed
8 | MIQTKDIIELTDTYGANNYHPLPIVISKAEGVWVEDPEGNRYMDLLSAYSAVNQGHRHPKIINALIDQANRVTLTSRAFHSDQLGPWYEKVAKLTNKEMVLPMNTGAEAVETAIKTARRWAYDVKKVEANRAEIIVCEDNFHGRTMGAVSMSSNEEYKRGFGPMLPGIIVIPYGDLEALKAAITPNTAAFILEPIQGEAGINIPPAGFLKEALEVCKKENVLFVADEIQTGLGRTGKVFACDWDNVTPDMYILGKALGGGVFPISCAAANRDILGVFEPGSHGSTFGGNPLACAVSIAALEVLEEEKLTERSLQLGEKLVGQLKEIDNPMITEVRGKGLFIGIELNEPARPYCEQLKAAGLLCKETHENVIRIAPPLVISEEDLEWAFQKIKAVLS | not failed
9 | MIQVGDRFYDQAIVQTMGARAAEAVGLSDRPELSFAVCLSDPAEFLALLLAIREAGASVLPIHPSTPRAAARRLAIDLGCHRLVTDELAVEDLGAEDPGPGGLLQTTSGTTGEPKRIARSWAEIDREIDSYVATFVAPQDMTPLIACPITHSYGLICGVLVALRRGQVPHILGTANPKYLIARLRQTRQPLLYSSPAMLHAIARLLPAGEMIHAAMTSGTLLPDQWLMTIRARTTHLFQQYGCSEAGCVAINPNLSASGDMGAPLPHLRVEAGDTDQPREIVVHVGDRAIRTADLGYTKADGTLVFVGRLDDTINVSGLNVYPKEVEDVVMAMPGVTDAVVFRRLDSLAGERVAVAFSAEHSIAPADLRDWCIKNLAAHQVPMETVRLPRLPRQANGKISRREIAALHAEGRLELLAEETAA | failed
10 | MIRAAAKFSREAAATIRGRTISVRGNLIRYSTPLRLIHGEISVPNANHVAIQMVNYALSHARSQKSDESYAQGMLVLEQCLGNQPNDDQVSHDSKATVLLAMSDLLYESGNSSEAIERLKQVMTLTHSSLAIRVVAVEALVGLLIQSGQDDASLDVADEFLKLVKESGHENLQGVVATVKAIKGLAELVKGNIESAESLFRGLENHESCKGNIALSYGEYLHATGNFELAKEMYQKAIQGVTETKESMCSCNMNLKAVSLAATFALGQLESHIGNFGVAEKTLTDALTKTEEHYGDNHPKVGVILTAVALMYGNKAKQERSSSILIQEGLYRKALELMKAPPLDSKGIINMENQEVIALARAGYAELLLIQENRKSEGEKMKSWAESAWRNKRISLSEALTLSEPLGKVAIIDARTTRVL | failed
11 | MIRAASDDPAGVDELVAAIAPGLAGLGLPVINRREVVLVTGPWLAGVSGVRAALAERLPQRRFVETAELGPGDAPVAVVFVVSAATALTESDCVLLDTAAEHTDAVVAVVSKIDVHRGWRDVLTSNRDRLAARASRYARVPWVGAAAAPELGEPYLDDLVAAIQKQLADPAVARRNMLRAWESRLLMVARRFDGDAQSAGRRARVDALRQQRRTVLRQGRQSKSEHTIALRAQIQHARVKLSYFARNRCSLLRVELQEHVAGLSRKDIARFAAYTRGRVQEVVAEVGEGAVAHLADVAQLLGVPVQPPVLENLPAVLPTVVAPPLTSRRLEIRLTTLLGAGFGLGIALTLSRLVAGLTPGLAASGMVAGVAIGLAVTAWVVNARALLHDRVVVDRWTGEVTASLRSVVEQLVATRVVAVETLLSTAISERDDAENARVADQVSIIDGELREHAVAAARAAALRDREMPAVRAALEAVRAELGEPGAPTTGLF | failed
12 | MIRCLHVLYVRHVMLMSTIHHTKRTLQPYFALVRAPFLVFTAIVILLPAAAAAEAGILNVTNTLLAFGSVLAAHVAVNILNLASDYRTGIDEATDETPYSGGNDVLVSGTLSYRRALAAGVIAILASALFVVPLVSQFGGIVLLFYGVGTVLVVGYTDVFARIGLGEFACGAGLTFLPTVAVGYIQAGTFPESVLYLSVPMFLVGFNLLLLNEFPDVEADRTNGRVNIPVVLGRQTAGYIYFGLVGVLVASLLYPIATGALPATVAVAILPIALLAPIFRTVVLEGNGDLTDDELGNHILWTQTTIVALAVGMAAAAVL | failed
